Experimental findings from patent US20190064149A1, “CANCER EXAMINATION METHOD AND EXAMINATION KIT” (THE UNIVERSITY OF TOKYO, priority 2013, published 2019) are described below.

“Also recorded” adds a separate entry of the source.

Holding throughout (assay type): cell-based, human
For experiment [1], the system named is A431 cells. Briefly: Migration activity of EGF-stimulated cells in a transwell chamber. As to conditions: EGF-stimulated MT1-MMP knockdown cells. The source says:
No RhoG activity was detected from the cells not treated with EGF (A). […] Similar results were found in the SCC61 cells (C).

Another experiment concerns RhoG. Briefly: RhoG activity pull-down with ELMO2/GST beads in MT1-MMP knockdown A431 cells. The conditions noted are these: MT1-MMP knockdown A431 cells after EGF stimulation. The source says:
By using A431 cells whose MT1-MMP expression was knocked down by siRNA, an influence of Ephrin-A1-dependent EphA2 on an RhoG signaling downstream of the EGF receptor was studied.
A fusion protein of ELMO2 and GST, each serving as an effector of RhoG, was solid phased on glutathione beads and the RhoG activity in a cell suspension solubilized with RIPA was detected by pull-down using ELMO2/GST beads as a bait. Co-precipitated RhoG was detected using an anti-RhoG polyclonal antibody (Santa Cruz) and the RhoG activity was quantified by densitometry with Image J. An expression vector of ELMO2 was kindly given by Chihiro Sasakawa, professor of Division of Bacterial Infection, Medical Institute of Science, The University of Tokyo.

The test system of experiment [2] is A431 cells. Briefly: Cell growth assay, three-dimensional collagen gel culture and spheroid formation. The conditions noted are these: three-dimensional culture in collagen gel and anchorage-independent spheroid formation. As to the method: Collagen I gel (3 mg/ml, Nitta Gelatin) extracted in acetic acid, a neutralization buffer (50 mM NaOH, 260 mM NaHCO3, 200 mM HEPES), and each of the two types of cells were mixed and the resulting mixture was seeded to satisfy 2.5×10^4/250 μl/48 well plate. After completion of the polymerization of the collagen gel, they were cultured for 7 days in 400 μl/well of a DMEM/1% FCS culture solution. After culturing, the collagen gel was dissolved with 0.1% collagenase. The cells were treated with trypsin to dissociate them into single cells and the number of the cells was counted using a Coulter counter.
The two types of the cells were each detached with trypsin from one another and the number of the cells was counted by a hemocytometer. They were seeded in a low adhesion plate (PrimeSurface (registered trademark), Sumitomo Bakelite) of each cell protein (100 cells/100 μl/96 well plate) and cultured for 7 days in a DMEM/1% FCS culture solution. The number of spheroid formation cells was obtained from their volume (½×long diameter×(short diameter)^2).

B1: Ephrin-A1: typical ligand of EphA2 (protein)
chain: DRHTVFWNSSNPKFRNEDYTIHVQLNDYVDIICPHYEDHSVADAAMEQYILYLVEHEEYQLCQPQSKDQVRWQCNRPSAKHGPEKLSEKFQRFTPFTLGKEFKEGHSYYYISKPIHQHEDRCLRLKVTVSGKITHSPQAHDNPQEKRLAADDPEVRVLHSIGHS
On to B1, for which the cell migration entry in the experiment on A431 cells [1] is recorded as “significantly suppressed”. For the same molecule, the RhoG activity result with RhoG was “significant decrease; also recorded: significantly reduced”. Also, in the experiment with A431 cells [2], the “growth of MT1-MMP knockdown cells” value is recorded as “significantly suppressed”.
